Series [1] can be described thus: in vitro diffusion of formulation across membrane mounted on vial. Format: in vitro ADME, pig or sheep. As to conditions: for Optimal pH Conditions with Experimental Formulation: pH found to produce rapid diffusion across the membrane, pH adjusted with sodium bicarbonate or citric acid. The source says:
A flat section of either pig or sheep intestinal membrane is mounted across the open top of the vial. A screw top having a 7 mm hole (approximate) is then screwed to the vial, thereby securing the membrane to the vial. The vial is inverted and immersed in an isotonic solution (e.g., saline). Diffusion of the formulation is then allowed to proceed. The isotonic solution may be agitated with a magnetic stirrer. A pipette is used to sampling the saline solution at designated time intervals (e.g., 5, 10, 30, 60, 90, 180, and 600 seconds).
Other membranes may be used, including commonly available natural casing for food preparation, or cell culture human membranes (e.g. membranes from MatTek Corporation; Ashland, Mass.). […] Samples may contain vitamin B12 and arginine. The pH of the formulation may be adjusted as necessary.
The following compounds were analyzed in in vitro tests and the pH of the solutions were adjusted to the values noted below with either sodium bicarbonate (solid) or citric acid to produce the desired testing pH solutions.

A short description of series [2]: in vivo sublingual administration to rats, active agent in plasma by HPLC. Further details: species or system Sprague Dawley rats. Particulars: sublingual experimental formulation in rats; ng/mL in serum relative to ng/mL in serum from published studies (conventional control dose). The method, then: Formulations comprising a variety of active agents were also tested in vivo. A […] volume/400 g animal formulation was administered sublingually to rats (Sprague Dawley rats, with jugular catheters were purchased from Charles River Laboratories). All rats were in the 275-300 g weight range.
All dose formulations were prepared on the day of dosing. Prior to dose administration, each rat was anesthetized with ketamine:xylazine (7:1, 60 mg/kg, IM) and positioned (supine) so that the head and shoulders were in alignment to preclude drainage of the dose into the trachea or esophagus. The mouth was opened and the interior (including under the tongue) was swabbed with dry cotton applicators. The tongue was held up and the dose was dispensed (same technician for all applications) into the sublingual pocket. The tongue was allowed to return to a normal position and the mouth was allowed to close.
Blood samples were drawn via catheter or cardiac puncture either 10 minutes following administration, or over a time range including 30 seconds, 1 minute, 5 minutes and 15 minutes following administration. The concentration (ng/mL) of the active agent in rat plasma was calculated using high powered liquid chromatography (HPLC). Efficiency was calculated as (ng/mL administered active agent in serum)/(ng/mL active agent in serum from published studies).

Where a name gives a salt, the structure may show the parent alone.

These results are taken from US20100291160A1, “PHARMACEUTICAL SYSTEM FOR TRANS-MEMBRANE DELIVERY” (priority 2009, published 2010).

For the molecule `CCCC[C@H](NC(C)=O)C(=O)N[C@H]1CC(=O)NCCCC[C@@H](C(=O)O)NC(=O)[C@H](Cc2c[nH]c3ccccc23)NC(=O)[C@H](CCCN=C(N)N)NC(=O)[C@@H](Cc2ccccc2)NC(=O)[C@H](Cc2cnc[nH]2)NC1=O` [Bremelanotide], the “Optimal pH Conditions with Experimental Formulation” value (from here on “Optimal pH Conditions”) in series [1] is “pH 6.0 to 8.0”. Moreover, the “Observed Plasma Levels” value in series [2] is 136.00%.

Consider `CNC[C@H](O)c1ccc(O)c(O)c1` [Epinephrine], for which, in series [1], the “Optimal pH Conditions” value was “pH 5.0 to 7.0”. Further, the “Observed Plasma Levels” value in series [2] lay within 0 to 600%. Consider `CCCc1nn(C)c2c(=O)[nH]c(-c3cc(S(=O)(=O)N4CCN(C)CC4)ccc3OCC)nc12` [Sildenafil], for which the “Optimal pH Conditions” value in series [1] is listed as “pH 6.8”. `CC[C@H](C)[C@H](NC(=O)[C@H](CCC(=O)O)NC(=O)[C@H](CO)NC(=O)[C@@H](NC(=O)[C@@H](N)CO)C(C)C)C(=O)N[C@@H](CCC(N)=O)C(=O)N[C@@H](CC(C)C)C(=O)N[C@@H](CCSC)C(=O)N[C@@H](Cc1cnc[nH]1)C(=O)N[C@@H](CC(N)=O)C(=O)N[C@@H](CC(C)C)C(=O)NCC(=O)N[C@@H](CCCCN)C(=O)N[C@@H](Cc1cnc[nH]1)C(=O)N[C@@H](CC(C)C)C(=O)N[C@@H](CC(N)=O)C(=O)N[C@@H](CO)C(=O)N[C@@H](CCSC)C(=O)N[C@@H](CCC(=O)O)C(=O)N[C@@H](CCCN=C(N)N)C(=O)N[C@H](C(=O)N[C@@H](CCC(=O)O)C(=O)N[C@@H](Cc1c[nH]c2ccccc12)C(=O)N[C@@H](CC(C)C)C(=O)N[C@@H](CCCN=C(N)N)C(=O)N[C@@H](CCCCN)C(=O)N[C@@H](CCCCN)C(=O)N[C@@H](CC(C)C)C(=O)N[C@@H](CCC(N)=O)C(=O)N[C@@H](CC(=O)O)C(=O)N[C@H](C(=O)N[C@@H](Cc1cnc[nH]1)C(=O)N[C@@H](CC(N)=O)C(=O)N[C@@H](Cc1ccccc1)C(=O)O)C(C)C)C(C)C` [Teriparatide (rDNA Origin), Teriparatide]: in series [1], the “Optimal pH Conditions” value is recorded as “pH 6.8”.

Consider `CCCc1nn(C)c2c(=O)[nH]c(-c3cc(S(=O)(=O)N4CCN(C)CC4)ccc3OCC)nc12` [sildenafil citrate], for which the “Observed Plasma Levels” value in series [2] was found to be 169.00%. Adalimumab: in series [1], the “Optimal pH Conditions” value is recorded as “pH 7.7”.

Regarding Enoxaparin Sodium, the “Optimal pH Conditions” value in series [1] is “pH 8.0 to 6.0”. With Etanercept, the rate of absorption result in series [1] (at lower pH values (than approximately 8.0)) is reported as “dramatically reduced by at least a factor of five times”. For the same molecule, the “transport of the drug after elimination of each of the cofactors of the formulation” value in series [1] (in most tests) is given as “slight to substantial decreases”. Also, the “pH at which transport occurred” value in series [1] (in vitro membrane test of Example 3) is 8 pH. For the same molecule, in series [1] (pH adjusted to approximately 8.0), the “rates of membrane transport” value is listed as “substantially increased”. In addition, the “Optimal pH Conditions” value in series [1] was “pH 8”.

B1: Neupogen: a filgrastim (e.g., G-CSF, Neupogen) (protein, UniProt P09919 31-207, looked up)
Granulocyte …: TPLGPASSLPQSFLLKCLEQVRKIQGDGAALQEKLVSECATYKLCHPEELVLLGHSLGIPWAPLSSCPSQALQLAGCLSQLHSGLFLYQGLLQALEGISPELGPTLDTLQLDVADFATTIWQQMEELGMAPALQPTQGAMPAFASAFQRRAGGVLVASHLQSFLEVSYRVLRHLAQP
modifications: filgrastim
For the molecule B1, the “Optimal pH Conditions” value in series [1] was “pH 7.4”.
